This passage reports Kd results from publication PMC8439657, “Bipartite binding and partial inhibition links DEPTOR and mTOR in a mutually antagonistic embrace” (eLife, 2021).

In the experiment the target is T1, mTOR FRB domain, residues 2015-2114 (human, UniProt P42345 2015-2114).
T1 construct: mTOR, human, FRB domain, residues 2015-2114; The methods describe the purification of the GST-FRB fusion and mention no TEV cleavage; also called isolated FRB domain; source: E. coli C41(DE3)RIPL, purified (Glutathione-Sepharose, HiTrapQ, Superdex 75)
As to the kind of experiment: NMR titration; up to 220 µM unlabelled linker-PDZ added to 40 µM 15N-labelled FRB; 1H-15N BEST-TROSY, chemical shift perturbation; 278K, pH 8, 50 mM HEPES, 200 mM NaCl. The note with it: both partners purified.

T1 sequence (P42345 2015-2114): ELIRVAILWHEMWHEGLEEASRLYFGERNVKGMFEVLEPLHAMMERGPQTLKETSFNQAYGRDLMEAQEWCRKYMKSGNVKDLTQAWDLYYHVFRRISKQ

B1: DEPTOR long-linker-PDZ, residues 228-409 (domain or fragment)
chain: MELLNEKSPSSQETHDSPFCLRKQSHDNRKSTSFMSVSPSKEIKIVSAVRRSSMSSCGSSGYFSSSPTLSSSPPVLCNPKSVLKRPVTSEELLTPGAPYARKTFTIVGDAVGWGFVVRGSKPCHIQAVDPSGPAAAAGMKVCQFVVSVNGLNVLHVDYRTVSNLILTGPRTIVMEVMEELEC
modifications: GST tag left out (TEV-cleavable). pOPL111 states no variant, so the reference sequence is used. The full-length WT clone is the S204/N389 natural variant, so residue 389 of this construct may be N …
As usually defined, the Kd is the equilibrium constant for the complex coming apart. On to B1, for which the Kd was ~500 µM.
